B1: CD19 E7 scFv (P4) (scFv)
scFv: DIQMTQSPSSLSASVGDRVTITCRASQDITRYLNWYQQKPGKAPKLLIYAASSLQSGVPSRFSGSGSGTDFTLTISSLQPEDFATYYCQQSYSYPPTFGQGTKVEIKGGGGSGGGGSGGGGSQVQLVESGGGVVQPGRSLRLSCAASGFTFRDYGMHWVRQAPGKGLEWVAVISYEGSNEYYADSVKGRFTISRDNSKNTLYLQMNSLRAEDTAVYYCARDRGFAGWYDYAFDPWGQGTLVTVSS
notes: scFv clone from the display library, screened as a library clone; also called 45; clone 45
B2: CD19 7 scFv (P5) (scFv)
scFv: DIQMTQSPSSLSASVGDRVTITCRASQSISKYLNWYQQKPGKAPKLLIYDASSLQSGVPSRFSGSGSGTDFTLTISSLQPEDFATYYCQQSYTIPLTFGQGTKVEIKGGGGSGGGGSGGGGSQVQLVQSGAEVKKPGSSVKVSCKASGGTFSSYAFSWVRQAPGQGLEWMGGIVPLFGAVEYAQKFQGRVTITADESTSTAYMELSSLRSEDTAVYYCAREKGFYRYFDHWGQGTLVTVSS
notes: scFv clone from the display library, screened as a library clone; also called 46; clone 46
B3: CD19 10 scFv (P6) (scFv)
scFv: DIQMTQSPSSLSASVGDRVTITCRASQTISRYLNWYQQKPGKAPKLLIYAASSLQSGVPSRFSGSGSGTDFTLTISSLQPEDFATYYCQQSYRPPLTFGQGTKVEIKGGGGSGGGGSGGGGSEVQLLESGGGLVQPGGSLRLSCAASGFTFSSYAMSWVRQAPGKGLEWVSTISAGGHGTYYADSVKGRFTISRDNSKNTLYLQMNSLRAEDTAVYYCARGAGYFDYWGQGTLVTVSS
notes: scFv clone from the display library, screened as a library clone; also called 47; clone 47
B4: CD19 11 scFv (P7) (scFv)
scFv: DIQMTQSPSSLSASVGDRVTITCRASQSISSYLNWYQQKPGKAPKLLIYAASSLQSGVPSRFSGSGSGTDFTLTISSLQPEDFATYYCQQTGAVPYTFGQGTKVEIKGGGGSGGGGSGGGGSEVQLLESGGGLVQPGGSLRLSCAASGFTFRDYAMSWVRQAPGKGLEWVSAISESGIDTYYADSVKGRFTISRDNSKNTLYLQMNSLRAEDTAVYYCARVAGYDSDSSTYYDYMDVWGQGTLVTVSS
notes: scFv clone from the display library, screened as a library clone; also called 48; clone 48
B5: CD19 14 scFv (P8) (scFv)
scFv: DIQMTQSPSSLSASVGDRVTITCRASQSISNYLNWYQQKPGKAPKLLIYAASSLQSGVPSRFSGSGSGTDFTLTISSLQPEDFATYYCQQAYSAPITFGQGTKVEIKGGGGSGGGGSGGGGSEVQLLESGGGLVQPGGSLRLSCAASGFTFGDYAMSWVRQAPGKGLEWVSAISRGGHGTYYADSVKGRFTISRDNSKNTLYLQMNSLRAEDTAVYYCARLVGYGLDYWGQGTLVTVSS
notes: scFv clone from the display library, screened as a library clone; also called 49; clone 49
B6: CD19 15 scFv (P9) (scFv)
scFv: DIQMTQSPSSLSASVGDRVTITCRASQPIRPYLNWYQQKPGKAPKLLIYDASSLQSGVPSRFSGSGSGTDFTLTISSLQPEDFATYYCQQSYSAPYTFGQGTKVEIKGGGGSGGGGSGGGGSEVQLLESGGGLVQPGGSLRLSCAASGFTFSSYAMSWVRQAPGKGLEWVSVISGGGANTYYADSVKGRFTISRDNSKNTLYLQMNSLRAEDTAVYYCARDWRYFDHWGQGTLVTVSS
notes: scFv clone from the display library, screened as a library clone; also called 50; clone 50
B7: CD19 16 scFv (P10) (scFv)
scFv: QSVLTQPPSVSGAPGQRVTISCTGSSSNIGAGYDVHWYQQLPGTAPKLLIYGNNNRPSGVPDRFSGSKSGTSASLAITGLQAEDEADYYCQSYDVSLGVWVFGGGTKLTVLGGGGSGGGGSGGGGSQLQLQESGPGLVKPSETLSLTCTVSGGSISSPSYYWGWIRQPPGKGLEWIGSIYYTGATYYNPSLKSRVTISVDTSKNQFSLKLSSVTAADTAVYYCARYGPAGVGFDYWGQGTLVTVSS
notes: scFv clone from the display library, screened as a library clone; also called 51; clone 51
B8: CD19 18 scFv (P11) (scFv)
scFv: QSVLTQPPSVSGAPGQRVTISCTGSSSNIGAGYDVHWYQQLPGTAPKLLIYGTKNRPSGVPDRFSGSKSGTSASLAITGLQAEDEADYYCQSYDVRLKGWVFGGGTKLTVLGGGGSGGGGSGGGGSQLQLQESGPGLVKPSETLSLTCTVSGGSITSSSYYWGWIRQPPGKGLEWIGSIYYTGTTYYNPSLKSRVTISVDTSKNQFSLKLSSVTAADTAVYYCARYVGLSGGFDYWGQGTLVTVSS
notes: scFv clone from the display library, screened as a library clone; also called 52; clone 52
B9: CD19 23 scFv (P12) (scFv)
scFv: DIQMTQSPSSLSASVGDRVTITCRASQSIYSYLNWYQQKRGKAPKLLIYDASSLQSGVPSRFSGSGSGTDFTLTISSLQPEDFATYYCQQSYTAPPTFGQGTKVEIKGGGGSGGGGSGGGGSEVQLLESGGGLVQPGGSLRLSCAASGFTFSNYAMSWVRQAPGKGLEWVSAISESGHGTYYADSVKGRFTISRDNSKNTLYLQMNSLRAEDTAVYYCARLDWAGFDVWGQGTLVTVSS
notes: scFv clone from the display library, screened as a library clone; also called 53; clone 53

target: SIGLEC 7 (UniProt Q9Y286 19-467, limits assumed); assay: counter-selection of scFv clones against baculovirus and SIGLEC 7, 8 and 9
Sequence (Q9Y286 19-467 limits assumed): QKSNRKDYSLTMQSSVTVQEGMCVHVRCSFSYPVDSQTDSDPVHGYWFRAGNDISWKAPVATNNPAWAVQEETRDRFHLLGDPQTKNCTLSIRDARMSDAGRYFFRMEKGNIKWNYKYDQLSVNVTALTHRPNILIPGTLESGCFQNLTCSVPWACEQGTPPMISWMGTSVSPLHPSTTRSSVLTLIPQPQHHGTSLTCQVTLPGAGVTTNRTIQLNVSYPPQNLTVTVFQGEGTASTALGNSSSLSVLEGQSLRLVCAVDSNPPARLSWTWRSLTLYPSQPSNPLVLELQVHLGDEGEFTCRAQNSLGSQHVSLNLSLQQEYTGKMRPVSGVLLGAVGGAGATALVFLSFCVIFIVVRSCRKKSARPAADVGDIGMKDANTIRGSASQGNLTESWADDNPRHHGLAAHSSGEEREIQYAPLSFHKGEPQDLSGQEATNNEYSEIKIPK
From the text: (§1) These up to 30 scFv clones were further screened based on their ability to bind baculovirus or SIGLEC. Clones that bound biotinylated baculovirus or SIGLEC 7, 8 and 9 were removed from consideration.

**Q.** Does B1 bind?
**A.** Result: no binding

target: SIGLEC 8 (UniProt Q9NYZ4 17-499, limits assumed); assay: as above
Sequence (Q9NYZ4 17-499 limits assumed): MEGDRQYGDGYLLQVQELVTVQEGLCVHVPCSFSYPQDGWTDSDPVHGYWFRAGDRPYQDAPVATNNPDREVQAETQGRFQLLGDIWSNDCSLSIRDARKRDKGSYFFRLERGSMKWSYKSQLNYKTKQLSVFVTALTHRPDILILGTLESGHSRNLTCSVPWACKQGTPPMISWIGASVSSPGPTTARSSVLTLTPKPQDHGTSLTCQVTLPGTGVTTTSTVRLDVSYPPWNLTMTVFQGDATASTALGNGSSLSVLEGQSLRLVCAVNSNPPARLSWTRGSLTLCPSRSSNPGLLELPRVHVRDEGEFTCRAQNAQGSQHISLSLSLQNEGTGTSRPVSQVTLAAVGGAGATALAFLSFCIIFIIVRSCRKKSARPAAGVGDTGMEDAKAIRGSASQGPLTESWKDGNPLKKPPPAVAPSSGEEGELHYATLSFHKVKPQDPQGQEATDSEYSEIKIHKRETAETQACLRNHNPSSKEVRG
From the text: as §1

**Q.** Does B1 bind?
**A.** Result: no binding

target: SIGLEC 9 (UniProt Q9Y336 18-463, limits assumed); assay: as above
Sequence (Q9Y336 18-463 limits assumed): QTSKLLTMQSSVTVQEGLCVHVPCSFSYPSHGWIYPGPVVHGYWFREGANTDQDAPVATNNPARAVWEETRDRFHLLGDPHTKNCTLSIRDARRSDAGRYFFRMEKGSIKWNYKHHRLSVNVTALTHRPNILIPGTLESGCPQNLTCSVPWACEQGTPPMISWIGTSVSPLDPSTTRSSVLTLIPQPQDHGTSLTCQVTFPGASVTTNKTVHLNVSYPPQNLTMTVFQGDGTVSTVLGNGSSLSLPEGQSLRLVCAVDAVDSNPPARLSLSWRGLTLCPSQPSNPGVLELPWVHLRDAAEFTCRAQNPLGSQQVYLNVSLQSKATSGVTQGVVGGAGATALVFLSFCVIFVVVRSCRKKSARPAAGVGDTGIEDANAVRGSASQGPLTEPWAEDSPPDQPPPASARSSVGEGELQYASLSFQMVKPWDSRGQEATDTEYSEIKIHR
From the text: as §1

**Q.** Does B1 bind?
**A.** Result: no binding

target: T1, native CD19 expressed on NALM6 tumor cells (UniProt P15391 20-556); assay: screen of scFv clones on CD19^+ NALM6 cells, Nalm6-CD19KO cells as negative control
T1 construct: whole, on cells; also called CD19^+ NALM6; NALM6-wt
T1 sequence (looked up): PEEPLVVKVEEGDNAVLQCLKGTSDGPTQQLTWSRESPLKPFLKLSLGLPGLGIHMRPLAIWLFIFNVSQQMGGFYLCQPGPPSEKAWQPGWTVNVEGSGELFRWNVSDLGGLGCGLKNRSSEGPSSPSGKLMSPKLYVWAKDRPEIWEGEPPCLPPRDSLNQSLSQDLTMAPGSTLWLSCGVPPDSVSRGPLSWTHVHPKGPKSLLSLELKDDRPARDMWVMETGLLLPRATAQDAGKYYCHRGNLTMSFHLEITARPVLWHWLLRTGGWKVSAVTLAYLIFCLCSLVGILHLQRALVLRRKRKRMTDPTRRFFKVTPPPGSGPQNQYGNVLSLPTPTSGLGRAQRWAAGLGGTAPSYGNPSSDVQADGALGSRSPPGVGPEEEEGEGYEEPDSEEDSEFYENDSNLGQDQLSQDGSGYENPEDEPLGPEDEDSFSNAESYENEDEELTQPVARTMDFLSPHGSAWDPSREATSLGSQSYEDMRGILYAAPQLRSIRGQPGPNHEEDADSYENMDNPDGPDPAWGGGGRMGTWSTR
From the text: To ensure that the up to (30) clones could recognize native CD19 expressed on tumor cells, the clones (scFv) were also screened against NALM6 tumor cell line positive (+) CD19 expression (NALM6 cell line+CD19). CD19 knockout Nalm6 cell line (NALM6 cell line⁻ CD1; or CD19KO Nalm6 cell line) were used as a negative control for the selection. CD19KO Nalm6 cell lines used for the screen were engineered CRISPR knocked-out (KO) Nalm6-CD19KO cells. Clones that bound CD19⁺ NALM6 tumor cells, but not CD19-NALM6 tumor cells (CD19K0) were selected (Step 4).

**Q.** Does B1 bind?
**A.** Result: binds

**Q.** Does B2 bind?
**A.** Result: binds

**Q.** Does B3 bind?
**A.** Result: binds

**Q.** Does B4 bind?
**A.** Result: binds

**Q.** Does B5 bind?
**A.** Result: binds

**Q.** Does B6 bind?
**A.** Result: binds

**Q.** Does B7 bind?
**A.** Result: binds

**Q.** Does B8 bind?
**A.** Result: binds

**Q.** Does B9 bind?
**A.** Result: binds

Source: patent US20240131068A1 (KITE PHARMA, published 2024)
